Columns and labels:
Assay in all cases: cell_activity
ZFN 56445 (synthetic) = conditions: pair with 56444; K562
ZFN 56444 (synthetic) = conditions: pair with 56445; K562; F6 printed QSGMLAR but cited as SEQ 5 (QSGNLAR)
ZFN 56126 (synthetic) = conditions: pair with 56127; K562
ZFN 56644 (synthetic) = conditions: pair with 56643; Neuro2a
ZFN 56317 (synthetic) = conditions: pair with 56316; K562
ZFN 56254 (synthetic) = conditions: pair with 56255; K562
ZFN 56316 (synthetic) = conditions: pair with 56317; K562
ZFN 56529 (synthetic) = conditions: pair with 56526; K562 deltaF508 line
ZFN 56527 (synthetic) = conditions: pair with 56526; K562 deltaF508 line
ZFN 56691 (synthetic) = conditions: pair with 56690; Neuro2a; Table 2 site differs slightly from listing
ZFN 56255 (synthetic) = conditions: pair with 56254; K562
ZFN 56526 (synthetic) = conditions: 16.8% with 56527; K562 deltaF508 line
ZFN 56643 (synthetic) = conditions: pair with 56644; Neuro2a
ZFN 56127 (synthetic) = conditions: pair with 56126; K562
ZFN 56690 (synthetic) = conditions: pair with 56691; Neuro2a

## GTGAGAAGGCAGAGAGAAGAATATTTAT (double strand) [CFTR int3 56445 site]
ZFN 56445 (synthetic)
  activity: 32.7 % indels

## GGGAAGAAGCAGCTGAAATGTGTAGGTG (double strand) [CFTR int3 56444 site]
ZFN 56444 (synthetic)
  activity: 32.7 % indels

## GTACACTGGACTCAGCAGCCTGAATTCC (double strand) [CFTR int7 56126 site]
ZFN 56126 (synthetic)
  activity: 55.4 % indels

## TGGAAGCTGAAGTTCTTGGAACATAGCA (double strand) [Cftr int8 56644 site]
ZFN 56644 (synthetic)
  activity: 49.2 % indels

## TTTATCCTTTTGCTGACCATGTTTTGTT (double strand) [CFTR int1 56317 site]
ZFN 56317 (synthetic)
  activity: 52 % indels

## ATTAAGTCCACGCATACTGAAGTCTTGG (double strand) [CFTR int8 56254 site]
ZFN 56254 (synthetic)
  activity: 50.1 % indels

## GAAAAGACTATTGAGGGACTGGTGTAGA (double strand) [CFTR int1 56316 site]
ZFN 56316 (synthetic)
  activity: 52 % indels

## ATGATGAATATAGATACAGAAGCGTCAT (double strand) [CFTR dF508 56529/56527 site]
ZFN 56529 (synthetic)
  activity: 19.6 % indels
ZFN 56527 (synthetic)
  activity: 16.8 % indels

## GTCAACAGGTGTACTGCAGGCATGCTAG (double strand) [Cftr int1 56691 site]
ZFN 56691 (synthetic)
  activity: 67.2 % indels

## TAGGGAAGGTAGGAGCATAAGGAAGAAT (double strand) [CFTR int8 56255 site]
ZFN 56255 (synthetic)
  activity: 50.1 % indels

## GGAAACACCAATGATATTTTCTTTAATG (double strand) [CFTR dF508 56526 site]
ZFN 56526 (synthetic)
  activity: 19.6 % indels

## GCAATGCTTCATGGGAAAGTACAGTGGC (double strand) [Cftr int8 56643 site]
ZFN 56643 (synthetic)
  activity: 49.2 % indels

## ATGGAAACTGAGCTGCAGGTGTGTGATT (double strand) [CFTR int7 56127 site]
ZFN 56127 (synthetic)
  activity: 55.4 % indels

## CCCTGGGTTATGCTGTGATCTTGTGTCA (double strand) [Cftr int1 56690 site]
ZFN 56690 (synthetic)
  activity: 67.2 % indels

Reference: US20200079826
